Consider five proteins from publication doi:10.1101/836676, “Crosslinking of nucleotide binding domains improves the coupling efficiency of an ABC transporter” (bioRxiv, 2019).

Substitutions are numbered along the chain they refer to. In names and notes the source's numbering stands.

Series [1] deals with the molecule itself. The series can be described thus: cross-linking; disulfide cross-linking of purified cysteine variants in detergent: 1 mM Cu(II)-(1,10-phenanthroline)3, 1 hour, 4 °C, 100 mM NaCl, 20 mM Tris pH 7.5, 0.05% DDM, 0.05% C12E8.
Series [2] concerns the molecule itself. In words: crystal structure; wildtype NaAtm1 purified in DDM with MgAMPPNP; 50 mM ADA pH 7.1, 8-10% PEG 1000, 8-10% PEG 1500, 20 °C.
Series [3] concerns the molecule itself. In words: crystal structure; NaS526C, NaT525C and NaE523Q with bound ATP; condition of NaA527C without MgCl2; samples with 1 mM ATP and 5 mM EDTA.

B1: NaA527C, single-site cysteine variant of NaAtm1 (natural protein, Novosphingobium aromaticivorans)
chain: MPPETATNPKDARHDGWQTLKRFLPYLWPADNAVLRRRVVGAILMVLLGKATTLALPFAYKKAVDAMTLGGGAQPALTVALAFVLAYALGRFSGVLFDNLRNIVFERVGQDATRHLAENVFARLHKLSLRFHLARRTGEVTKVIERGTKSIDTMLYFLLFNIAPTVIELTAVIVIFWLNFGLGLVTATILAVIAYVWTTRTITEWRTHLREKMNRLDGQALARAVDSLLNYETVKYFGAESREEARYASAARAYADAAVKSENSLGLLNIAQALIVNLLMAGAMAWTVYGWSQGKLTVGDLVFVNTYLTQLFRPLDMLGMVYRTIRQGLIDMAEMFRLIDTHIEVADVPNAPALVVNRPSVTFDNVVFGYDRDREILHGLSFEVAAGSRVAIVGPSGAGKSTIARLLFRFYDPWEGRILIDGQDIAHVTQTSLRAALGIVPQDSVLFNDTIGYNIAYGRDGASRAEVDAAAKGAAIADFIARLPQGYDTEVGERGLKLSGGEKQRVAIARTLVKNPPILLFDEATSCLDTRTEQDILSTMRAVASHRTTISIAHRLSTIADSDTILVLDQGRLAEQGSHLDLLRRDGLYAEMWARQAAESAEVSEAAE
modifications: C527 in a disulfide with C527 of the second chain after oxidation
notes: NaAtm1 of Novosphingobium aromaticivorans, GenBank ABD27067, with A527C; Made by site-directed mutagenesis of the C-terminally His6-tagged NaAtm1 construct; also called crosslinked NaA527C; source: Escherichia coli BL21-gold (DE3), purified (NiNTA, oxidation with Cu(II)-(1,10-phenanthroline)3, SEC)
In the case of B1, the binding result in series [1] is “binds”.

B2: NaS526C, single-site cysteine variant of NaAtm1 (natural protein, Novosphingobium aromaticivorans)
chain: B1 chain with S526C, C527A
modifications: C526 in a disulfide with C526 of the second chain after oxidation
notes: NaAtm1 of Novosphingobium aromaticivorans, GenBank ABD27067, with S526C; Made by site-directed mutagenesis of the C-terminally His6-tagged NaAtm1 construct; source: Escherichia coli BL21-gold (DE3), purified (NiNTA, oxidation with Cu(II)-(1,10-phenanthroline)3, SEC)
On to B2, for which the binding result in series [1] was “binds”.

B3: wildtype NaAtm1, bacterial Atm1 homolog from Novosphingobium aromaticivorans (natural protein)
chain: B1 chain with C527A
notes: NaAtm1, ABC exporter (Atm1 homolog) of Novosphingobium aromaticivorans, GenBank ABD27067; natively cysteine-less; homodimer of 133 kDa; Selenomethionine protein (E. coli B834 (DE3)) was used for phasing; also called native transporter; source: Escherichia coli BL21-gold (DE3), purified (NiNTA, SEC) in DDM
B3: the binding result in series [2] is “binds”.

B4: NaE523Q, ATP-hydrolysis deficient variant of NaAtm1 with the E to Q mutation in the Walker B-motif (natural protein, Novosphingobium aromaticivorans)
chain: B1 chain with E523Q, C527A
notes: NaAtm1 of Novosphingobium aromaticivorans, GenBank ABD27067, with E523Q; Made by site-directed mutagenesis of the C-terminally His6-tagged NaAtm1 construct; source: Escherichia coli BL21-gold (DE3), purified (NiNTA, SEC)
B4: the binding result in series [3] was “binds”.

B5: NaT525C, single-site cysteine variant of NaAtm1 (natural protein, Novosphingobium aromaticivorans)
chain: B1 chain with T525C, C527A
notes: NaAtm1 of Novosphingobium aromaticivorans, GenBank ABD27067, with T525C; In the cross-linking test C525 forms a disulfide with C525 of the second chain; source: Escherichia coli BL21-gold (DE3), purified (NiNTA, oxidation with Cu(II)-(1,10-phenanthroline)3, SEC)
On to B5, for which, in series [1], the binding result is reported as “binds”.
